Square brackets hold non-standard residues; d marks the D form. Ends that are not written are not given here. sY = N[C@@H](Cc1ccc(OS(=O)(=O)O)cc1)C(=O)O
T1: canine parietal cell gastrin receptor (recombinant, expressed from clone GR-1 in COS-7 cells) (canine)
T1 chain: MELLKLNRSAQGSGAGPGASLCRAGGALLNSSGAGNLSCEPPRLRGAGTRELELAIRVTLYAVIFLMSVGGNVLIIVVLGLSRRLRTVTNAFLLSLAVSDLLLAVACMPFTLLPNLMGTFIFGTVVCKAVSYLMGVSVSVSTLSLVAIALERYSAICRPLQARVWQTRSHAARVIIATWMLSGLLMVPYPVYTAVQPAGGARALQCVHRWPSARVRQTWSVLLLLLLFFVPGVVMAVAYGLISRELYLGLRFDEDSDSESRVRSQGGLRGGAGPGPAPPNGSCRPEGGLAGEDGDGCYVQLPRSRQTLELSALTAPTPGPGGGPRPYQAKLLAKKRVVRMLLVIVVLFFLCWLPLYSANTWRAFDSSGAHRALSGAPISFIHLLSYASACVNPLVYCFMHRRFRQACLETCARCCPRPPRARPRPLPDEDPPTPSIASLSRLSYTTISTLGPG


Experiments:
[1] = target: T1, canine parietal cell gastrin receptor …; assay: competition with 40 pM 125I-CCK-8 on intact GR-1 transfected COS-7 cells
Method: (§1) COS-7 cells (1.5 ×10^6) were plated in 10 cm culture dishes (Nunc) and grown in DMEM/10% fetal calf serum, 5% CO_2 at 37° C. […] Twenty-four hours following transfection, cells were split into 24-well dishes (Nunc), 5000 cells/well. […] Equilibrium binding occurred after incubation for 80 min at 37° C. Cell monolayers were subsequently washed three times and bound radioactivity was quantified after cell hydrolysis in 1N NaOH.

[2] = target: T1, canine parietal cell gastrin receptor …; assay: competition with 125I-CCK-8 on isolated membranes of GR-1 transfected COS-7 cells, filtration
Method: Binding parameters were also measured in isolated plasma membranes from COS-7 cells transfected with GR-1. Binding was performed for 60 min at 22° C.

[3] = target: canine parietal cell gastrin receptor (recombinant, expressed from clone GR-1 in COS-7 cells) (canine)
[4] = target: canine parietal cell gastrin receptor (recombinant, expressed from clone GR-1 in COS-7 cells) (canine); remark: listed apart in the source
[5] = target: T1, canine parietal cell gastrin receptor …; assay: radioligand saturation binding, 2.5 to 1,000 pM 125I-CCK-8, GR-1 transfected COS-7 cells
Method: as §1

Binder | IC50 [1] [nM] | IC50 [2] [nM] | free cytosolic calcium, [Ca2+] (fura-2 fluorescence) [3] [nM] | phosphoinositide metabolites (Ins-1,4,5-P3, Ins-1,3,4,5-P4) by HPLC (% over control) [4] | Kd [5] [nM]
D[sY]MGWMDF-NH2 [CCK-8 (unlabeled)] | 0.09 | 0.08 | – | – | –
QGPWLEEEEEAYGWMDF-NH2 (ends and bridges not checked) [gastrin I] | 0.26 | 0.4 | 142 | 741 | –

More lines, now with the values ahead:

IC50 [1] [nM] | IC50 [2] [nM] | free cytosolic calcium, [Ca2+] (fura-2 fluorescence) [3] [nM] | phosphoinositide metabolites (Ins-1,4,5-P3, Ins-1,3,4,5-P4) by HPLC (% over control) [4] | Kd [5] [nM] | Binder
– | 1.5 | – | – | – | DYMGWMDF-NH2 [CCK-8-desulfate]
– | – | – | – | 0.08 | DYMGWMDF (ends and bridges not checked; also: 125I label, site not given here) [125I-CCK-8]

From US5541071 (New England Medical Center Hospitals, Inc., dated 1996)
